Test [1] concerns the target T1, human insulin receptor (HIR) (human, UniProt P06213). The test can be described thus: competition.
For test [2], the target named is T1, human insulin receptor (HIR). Kind of test: competition. The source holds these as a separate data set.
For test [3] the target is unchanged. The test can be described thus: competition. The source holds these as a separate data set.
Test [4] shares this target. Kind of test: competition. This is another data set of the same source.
The target is the same in test [5]. Kind of test: competition. This is another data set of the same source.
In another test the target is sIR-Fc (human, UniProt P06213). The test can be described thus: competition, TR-FRET vs b-RP9.
Another test deals with sIR (human, UniProt P06213). Kind of test: FP.

Where two headings read alike, the source gives them in different places. Non-standard residues stand in square brackets, D forms with d. No end group written: not given here. *: point of attachment. Biotin = O=C1N[C@H]2[C@H](CS[C@H]2CCCCC(=O)*)N1; Bpa = N[C@@H](Cc1ccc(C(=O)c2ccccc2)cc1)C(=O)O Where only a bound is given, the exact number is not on record here.

The Kd is the free concentration of one partner at which half of the binding sites on the other are occupied at equilibrium, for simple one-to-one binding. Read a high Kd as a looser complex. As to QLEEEWAGVQCEVYGRECPS [S226], the equilibrium dissociation constant (Kd) in test [1] came to 16000 nM.

B1: S546 (peptide)
chain 1: SLEEEWAQVECEV
chain 2: [Bpa]GRGCPSGSLDESFYDWFERQ[Bpa]GK(Biotin)
modifications: not fully specified (bridges); cysteine pairing not given here; also: chains 1 and 2 form one continuous chain
Consider B1, for which the Kd in test [1] was 26 nM.

B2: S415 (peptide)
chain 1: ESFYDWFERQLGKX
chain 2: ESFYDWFERQLGKX
modifications: listing feature
B2 yielded a Kd in test [2] of 100 nM.

With TGHRLGLDEQFYWWFRDALSG [S265], in test [1], binding was characterised by a dissociation constant (Kd) of 110 nM.

B3: S440 (peptide)
chain 1: ESFYDWFERQLGGGGK
chain 2: EWAWVQCEVYGRGCPS
Turning to B3, the Kd in test [1] stood at 99 nM.

HETFYSMIRSLAK [S117] gave an equilibrium dissociation constant (Kd) in test [1] of 27 nM.

Usually IC50 stands for the point on the concentration scale where inhibition reaches its midpoint. High values mean lower potency, low ones higher potency. Take FHENFYDWFVQRVSKK [H2C (D117)]: the IC50 in test [3] was determined as 700 nM.

As to MADYKDDDDKWLDQEWAWVQCEVYGRGCPSAAAGAPVPYPDPLEPRPG [RB540 (D8)], the equilibrium dissociation constant (Kd) in test [4] was roughly 100 nM.

LDQEWAWVQSEVYGRGSPSESFYDWFERQL [S509] registered a dissociation constant (Kd) in test [1] of 5.7 nM.

SLEEEWAQVECEVYGRGCPSGGSGGSGLLDESFYHWFDRQLR [S510]: the dissociation constant Kd in test [1] turned out to be 0.062 nM. Against the preceding molecule, the Kd is about 92-fold lower.

ANFYDWFVAELG [S242] gave a Kd in test [1] of 20000 nM.

B4: S233 (peptide)
chain 1: FHENFYDWFVRQVSKKX
chain 2: SDGFYNAIELLSX
modifications: listing feature
On to B4, for which, in test [1], the equilibrium dissociation constant (Kd) is 260 nM.

B5: S252 (peptide)
chain 1: SDGFYNAIELLSX
chain 2: SDGFYNAIELLSX
modifications: listing feature
On to B5, for which, in test [1], the Kd came out at 440 nM. This Kd is about 1.7-fold higher than that of the molecule before.

B6: S563 (peptide)
chain 1: SLEEEWAQIQCEVWG
chain 2: R[dN][dC]SESFYDWFERQL
modifications: cysteine pairing not given here
In turn, B6 showed an equilibrium dissociation constant (Kd) in test [1] of 0.014 nM.

B7: 539 (D8-6aa-RP9) (protein)
chain: MADYKDDDDKWLDQEWAWVQCEVYGRGCPSGGSGGSGSLDESFYDWFERQLGKKAAAGAPVPYPDPLEPRPG
B7 showed a Kd in test [4] of 0.7 nM.

In test [1], PLRESRNFYDWFVQQLE [S366] came in with an equilibrium dissociation constant (Kd) of 370 nM.

FHENFYDWAVRQVSKK [S223] returned a Kd in test [1] greater than 2000 nM.

LAQEWAWVQCEVYGRGCPSESFYDWFERQL [S495] registered a Kd in test [1] of 2.6 nM.

Consider HHHHHHKLDQEWAWVQCEVYGRGCPSESFYDWFERQLG [S481], for which the equilibrium dissociation constant (Kd) in test [1] stood at 1.3 nM.

Molecule SIEEEWAQIKCDVWGRGCPSESFYDWFERQL [S517] returned a dissociation constant (Kd) in test [1] of 0.006 nM. Against the preceding molecule, the Kd is about 220-fold lower.

SLEEEWAQIECEVYGRGCPSESFYDWFERQLG [S554]: binding in test [1] was characterised by a dissociation constant (Kd) of 0.0064 nM.

B8: RB517 (protein)
chain: DYKDDDDKHLCVLEELFWGASLFGYCSGGGSGGSHLCVLEELFWGASLFGYCSGAAAGAPVPYPDPLEPRAA
In test [4], B8 yielded a Kd of 60 nM.

B9: S246 (peptide)
chain 1: ACAWPTYWNCGGGGX
chain 2: FHENFYDWFVRQVSKKX
modifications: not fully specified; listing feature
In test [1], B9 registered a Kd of 50 nM.

In turn, SLEEEWAWVECEVYGRGCPSGSLDESFYDWFERQL [S532] came in with a dissociation constant Kd in test [1] of 0.037 nM.

For PLCFLQELFGGASLGGYCSG [S262], the affinity in test [1], expressed as Kd, was 19000 nM.

Turning to SLEEEWAQIECEVWGRGCSGSLDESFYDWFERQL [S561], the dissociation constant (Kd) in test [1] turned out to be 0.018 nM. That is a picomolar value.

HDPFYSMMKSLLK [S120] showed a Kd in test [1] of 20 nM.

The molecule IQGWEPFYGWFDDVVAQMFEE [S264] displayed a Kd in test [1] of 190 nM.

Molecule GSLDESFYDWFERQLGKK [S371 (RP9)] had a dissociation constant Kd in test [5] of 830 nM.

Consider GRVDWLQRNANFYDWFV [S251], for which, in test [1], binding was characterised by a dissociation constant (Kd) of 56000 nM.

B10: S374 (peptide)
chain 1: XGSLDESFYDWFERQLGKK
chain 2: XGSLDESFYDWFERQLGKK
modifications: not fully specified; listing feature
On to B10, for which the dissociation constant (Kd) in test [5] amounted to 180 nM.

In the case of SLEQEWAQVECEVYGRGCPSGSLDESFYDWFERQLG [S538], in test [1], the Kd was determined as 0.038 nM. In other words, the picomolar range.

For SLEEEWAQVKCEVYGRGCPSGSLDESFYDWFERQLG [S540], the Kd in test [1] stood at 0.013 nM.

B11: S414 (peptide)
chain 1: ESFYDWFERQLGKX
chain 2: ESFYDWFERQLGKX
modifications: not fully specified; listing feature
Turning to B11, the results for the IC50 in the test with sIR-Fc and with sIR were 184 nM and 0.2 nM, respectively.

In test [1], GSLDESFYDWFERQLGXK (listing feature) [S550] gave a dissociation constant Kd of 40 nM.

B12: S255 (peptide)
chain 1: SDGFYNAIELLSGGGX
chain 2: SDGFYNAIELLSGGGX
modifications: listing feature
In turn, B12 came in with a Kd in test [1] of 16 nM.

B13: S217 (peptide)
chain 1: SDGFYNAIELLS
chain 2: SDGFYNAIELLS
B13: the dissociation constant Kd in test [1] was 3900 nM.

For the molecule SGSLDESFYDWFERQLGKK [S372], the equilibrium dissociation constant (Kd) in test [1] is 200 nM.

For the origin of these results see patent publication US20110124556 (published 2011).
